Measured values as given in IntAct's records for PubMed 15207857.

B1: Glutamate receptor ionotropic, delta-2 (Mus musculus), Q61625 (parent)
chain: MEVFPLLLFLSFCWSRTWDLATADSIIHIGAIFDESAKKDDEVFRTAVGDLNQNEEILQTEKITFSVTFVDGNNPFQAVQEACELMNQGILALVSSIGCTSAGSLQSLADAMHIPHLFIQRSTAGTPRSGCGLTRSNRNDDYTLSVRPPVYLNEVILRVVTEYAWQKFIIFYDSEYDIRGIQEFLDKVSQQGMDVALQKVENNINKMITTLFDTMRIEELNRYRDTLRRAILVMNPATAKSFISEVVETNLVAFDCHWIIINEEINDVDVQELVRRSIGRLTIIRQTFPVPQNISQRCFRGNHRISSSLCDPKDPFAQNMEISNLYIYDTVLLLANAFHKKLEDRKWHSMASLSCIRKNSKPWQGGRSMLETIKKGGVNGLTGDLEFGENGGNPNVHFEILGTNYGEELGRGVRKLGCWNPVTGLNGSLTDKKLENNMRGVVLRVVTVLEEPFVMVSENVLGKPKKYQGFSIDVLDALSNYLGFNYEIYVAPDHKYGSPQEDGTWNGLVGELVFKRADIGISALTITPDRENVVDFTTRYMDYSVGVLLRRAEKTVDMFACLAPFDLSLWACIAGTVLLVGLLVYLLNWLNPPRLQMGSMTSTTLYNSMWFVYGSFVQQGGEVPYTTLATRMMMGAWWLFALIVISSYTANLAAFLTITRIESSIQSLQDLSKQTDIPYGTVLDSAVYQHVRMKGLNPFERDSMYSQMWRMINRSNGSENNVLESQAGIQKVKYGNYAFVWDAAVLEYVAINDPDCSFYTVGNTVADRGYGIALQHGSPYRDVFSQRILELQQSGDMDILKHKWWPKNGQCDLYSSVDAKQKGGALDIKSLAGVFCILAAGIVLSCLIAVLETWWSRRKGSRVPSKEDDKEIDLEHLHRRVNSLCTDDDSPHKQFSTSSIDLTPLDIDTLPTRQALEQISDFRNTHITTTTFIPEQIQTLSRTLSAKAASGFAFGSVPEHRTGPFRHRAPNGGFFRSPIKTMSSIPYQPTPTLGLNLGNDPDRGTSI
B2: Glutamate receptor ionotropic, delta-2 (Mus musculus), Q61625 (parent)
chain: B1 chain
partner: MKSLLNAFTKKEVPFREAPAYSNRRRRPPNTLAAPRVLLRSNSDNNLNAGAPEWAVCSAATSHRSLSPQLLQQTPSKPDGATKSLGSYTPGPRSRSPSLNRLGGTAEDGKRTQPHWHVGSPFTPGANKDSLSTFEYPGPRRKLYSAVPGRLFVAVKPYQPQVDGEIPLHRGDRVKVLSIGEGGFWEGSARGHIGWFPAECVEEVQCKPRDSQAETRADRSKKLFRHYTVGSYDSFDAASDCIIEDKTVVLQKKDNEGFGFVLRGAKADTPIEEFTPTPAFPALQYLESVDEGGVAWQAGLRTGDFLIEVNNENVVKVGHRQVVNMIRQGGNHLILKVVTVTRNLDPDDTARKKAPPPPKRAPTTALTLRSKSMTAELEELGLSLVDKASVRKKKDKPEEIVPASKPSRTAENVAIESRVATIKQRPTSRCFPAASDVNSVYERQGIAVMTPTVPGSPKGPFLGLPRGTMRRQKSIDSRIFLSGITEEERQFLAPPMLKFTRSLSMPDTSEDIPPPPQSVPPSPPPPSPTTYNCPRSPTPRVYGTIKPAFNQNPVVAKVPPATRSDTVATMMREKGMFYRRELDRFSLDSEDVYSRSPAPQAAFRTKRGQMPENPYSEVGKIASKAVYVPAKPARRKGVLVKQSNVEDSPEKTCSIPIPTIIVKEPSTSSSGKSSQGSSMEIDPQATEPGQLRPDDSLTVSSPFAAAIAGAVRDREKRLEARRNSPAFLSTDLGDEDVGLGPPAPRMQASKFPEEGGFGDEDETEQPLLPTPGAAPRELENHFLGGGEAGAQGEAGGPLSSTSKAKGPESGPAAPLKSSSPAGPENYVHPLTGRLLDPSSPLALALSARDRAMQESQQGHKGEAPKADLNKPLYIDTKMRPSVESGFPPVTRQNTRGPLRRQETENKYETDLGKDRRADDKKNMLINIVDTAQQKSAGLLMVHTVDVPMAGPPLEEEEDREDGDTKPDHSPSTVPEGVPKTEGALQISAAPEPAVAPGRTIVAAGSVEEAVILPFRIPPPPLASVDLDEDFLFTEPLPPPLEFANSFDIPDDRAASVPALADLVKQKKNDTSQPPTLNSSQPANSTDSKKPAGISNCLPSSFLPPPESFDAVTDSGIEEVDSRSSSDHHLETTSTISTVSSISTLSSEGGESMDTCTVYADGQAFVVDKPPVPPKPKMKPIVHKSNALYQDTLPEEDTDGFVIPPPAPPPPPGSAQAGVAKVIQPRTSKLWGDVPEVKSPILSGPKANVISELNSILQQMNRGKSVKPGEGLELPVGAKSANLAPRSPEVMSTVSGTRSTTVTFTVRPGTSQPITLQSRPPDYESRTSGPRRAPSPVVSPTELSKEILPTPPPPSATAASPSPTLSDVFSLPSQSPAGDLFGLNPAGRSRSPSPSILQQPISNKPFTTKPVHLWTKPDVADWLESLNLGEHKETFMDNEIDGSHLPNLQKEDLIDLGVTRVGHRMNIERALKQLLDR

Variants of: B1
Details: with shan1_rat Shank1, Q9WV48
Sequence of shan1_rat Shank1, Q9WV48 (Q9WV48 whole entry): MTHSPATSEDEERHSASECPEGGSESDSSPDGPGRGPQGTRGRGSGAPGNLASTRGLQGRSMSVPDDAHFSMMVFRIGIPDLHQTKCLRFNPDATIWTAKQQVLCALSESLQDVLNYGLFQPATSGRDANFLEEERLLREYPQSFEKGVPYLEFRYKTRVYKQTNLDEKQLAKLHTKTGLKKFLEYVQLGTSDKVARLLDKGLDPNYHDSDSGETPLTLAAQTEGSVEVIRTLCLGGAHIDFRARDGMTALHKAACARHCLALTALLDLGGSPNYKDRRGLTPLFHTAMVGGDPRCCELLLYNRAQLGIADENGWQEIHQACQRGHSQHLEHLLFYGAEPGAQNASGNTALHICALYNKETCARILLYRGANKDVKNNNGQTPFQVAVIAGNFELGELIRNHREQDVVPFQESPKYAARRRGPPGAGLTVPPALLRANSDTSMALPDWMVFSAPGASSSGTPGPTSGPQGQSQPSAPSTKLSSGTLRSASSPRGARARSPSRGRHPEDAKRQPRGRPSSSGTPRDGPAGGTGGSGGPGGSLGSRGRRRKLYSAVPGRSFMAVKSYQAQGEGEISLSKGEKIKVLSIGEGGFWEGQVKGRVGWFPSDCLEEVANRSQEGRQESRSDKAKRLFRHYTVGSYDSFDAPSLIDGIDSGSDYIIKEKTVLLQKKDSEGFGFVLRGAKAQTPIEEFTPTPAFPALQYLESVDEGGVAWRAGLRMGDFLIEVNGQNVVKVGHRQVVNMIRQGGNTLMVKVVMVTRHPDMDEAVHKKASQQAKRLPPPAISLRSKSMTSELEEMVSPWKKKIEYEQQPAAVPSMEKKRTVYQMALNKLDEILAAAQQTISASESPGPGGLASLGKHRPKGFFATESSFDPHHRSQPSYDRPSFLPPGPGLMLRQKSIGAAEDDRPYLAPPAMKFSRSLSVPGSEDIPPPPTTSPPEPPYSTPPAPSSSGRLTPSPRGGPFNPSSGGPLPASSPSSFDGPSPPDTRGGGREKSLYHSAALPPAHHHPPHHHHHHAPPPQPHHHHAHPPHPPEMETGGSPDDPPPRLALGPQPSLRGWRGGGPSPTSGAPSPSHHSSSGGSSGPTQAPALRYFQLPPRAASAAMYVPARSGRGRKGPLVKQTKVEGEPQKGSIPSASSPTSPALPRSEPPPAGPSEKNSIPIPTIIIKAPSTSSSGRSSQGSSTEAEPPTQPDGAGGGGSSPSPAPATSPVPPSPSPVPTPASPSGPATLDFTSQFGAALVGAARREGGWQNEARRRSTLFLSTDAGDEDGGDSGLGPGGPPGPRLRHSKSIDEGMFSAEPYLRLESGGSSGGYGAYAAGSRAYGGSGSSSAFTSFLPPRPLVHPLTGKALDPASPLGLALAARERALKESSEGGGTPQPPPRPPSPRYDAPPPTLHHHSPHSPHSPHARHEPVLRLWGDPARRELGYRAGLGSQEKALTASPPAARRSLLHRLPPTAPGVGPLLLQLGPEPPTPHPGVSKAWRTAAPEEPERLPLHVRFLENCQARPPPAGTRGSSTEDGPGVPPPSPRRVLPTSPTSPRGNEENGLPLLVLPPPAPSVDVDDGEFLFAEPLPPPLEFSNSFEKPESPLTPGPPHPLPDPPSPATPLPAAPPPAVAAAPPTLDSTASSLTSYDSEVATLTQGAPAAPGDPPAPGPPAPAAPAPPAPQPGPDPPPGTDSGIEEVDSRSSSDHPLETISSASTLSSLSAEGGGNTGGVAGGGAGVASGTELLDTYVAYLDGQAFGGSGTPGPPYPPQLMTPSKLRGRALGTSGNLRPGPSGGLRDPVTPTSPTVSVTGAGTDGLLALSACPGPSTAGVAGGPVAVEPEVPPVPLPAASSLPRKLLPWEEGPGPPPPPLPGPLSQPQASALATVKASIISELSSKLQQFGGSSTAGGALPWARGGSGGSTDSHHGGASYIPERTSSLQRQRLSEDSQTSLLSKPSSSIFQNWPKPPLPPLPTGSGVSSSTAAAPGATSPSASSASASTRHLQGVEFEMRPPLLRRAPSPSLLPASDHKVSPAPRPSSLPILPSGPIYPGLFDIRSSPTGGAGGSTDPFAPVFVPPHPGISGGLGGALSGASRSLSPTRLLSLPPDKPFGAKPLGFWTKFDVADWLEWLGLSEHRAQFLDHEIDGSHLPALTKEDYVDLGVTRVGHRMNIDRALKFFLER

| Variant | effect of a mutation on the interaction |
| --- | --- |
| T930A | decreasing interaction |
| S920A | disrupting interaction |
| T930A;F932A | disrupting interaction |

Variants of: B2
Details: with shan2_mouse Shank2, Q80Z38

| Variant | effect of a mutation on the interaction |
| --- | --- |
| S920A | disrupting interaction |
| T930A;F932A | decreasing interaction |
| T930A | decreasing interaction |

Variants of: B2
Details: with shan2_mouse Shank2, Q80Z38
Remark: another data set of the same source

| Variant | effect of a mutation on the interaction |
| --- | --- |
| S920A;T930A;F932A | disrupting interaction |
